Values belong to the binder of their own block, whether it stands above or below them.
Assays:
[1] = biological target: T1, human PD-L1 over-expressed on HEK293E cells (human, UniProt Q9NZQ7 19-290); assay: flow cytometry (Geometric Mean) on HEK293E cells over-expressing human PD-L1, serial dilution
T1 construct: whole, on cells; also called human PD-L1 (NM_014143.2)
Protocol: Then, the cells were washed three times with PBS (#LB001-02, Welgene) containing 2% fetal bovine serum and reacted at 4° C. for 20 minutes with an anti-human IgG antibody (#FI-3000, Vectorlabs) conjugated with a FITC (fluorescein isothiocyanate) fluorescent substance. Then, the cells were subjected to the same washing process as above and then suspended in 0.5 ml of PBS containing 2% FBS (#26140-079, Thermo Fisher) with an FACSCanto II flow cytometer (BD Biosciences, USA) as a flow cytometer.

[2] = biological target: M7; assay: ELISA on coated antigen, column M7
[3] = biological target: M3; assay: ELISA on coated antigen, column M3
[4] = biological target: M1; assay: ELISA on coated antigen, column M1
Protocol: (§1) An antigen PD-L1 wild type (WT) or several mutants were coated at a density of 100 ng/well on a 96-well immunoplate at 4° C. for 16 hours and the wells were blocked with 4% skim milk dissolved in PBS. Each well was washed with 0.2 ml of PBS/T, and then a single clone scFv-phage (each […]) cultured for 16 hours was added in a dose of 100 μl to each well and reacted at room temperature for 2 hours. Again, each well was washed 4 times with 0.2 ml of PBS/T, and then the second antibody, anti-Fab, was diluted to 1/2000 and reacted at room temperature for 1 hour. After washing with 0.2 ml of PBS/T, color development was performed and absorbance was measured at 490 nm.

[5] = biological target: M4; assay: ELISA on coated antigen, column M4
Protocol: as §1

[6] = biological target: M2; assay: ELISA on coated antigen, column M2
Protocol: as §1

[7] = biological target: M5; assay: ELISA on coated antigen, column M5
Protocol: as §1

[8] = biological target: M6; assay: ELISA on coated antigen, column M6
Protocol: as §1

[9] = biological target: T2, PD-L1-hFc (human, UniProt Q9NZQ7 19-238); assay: SPR (ProteOn XPR36), PD-L1-hFc immobilised on GLC chip, antibody 30 nM to 0.123 nM as analyte
T2 construct: extracellular domain; Made in HEK-293F cells, protein A purified; also called PD-L1 antigen; PD-L1 protein
T2 sequence (Q9NZQ7 other isoform, or with tags, fused parts or gaps limits assumed): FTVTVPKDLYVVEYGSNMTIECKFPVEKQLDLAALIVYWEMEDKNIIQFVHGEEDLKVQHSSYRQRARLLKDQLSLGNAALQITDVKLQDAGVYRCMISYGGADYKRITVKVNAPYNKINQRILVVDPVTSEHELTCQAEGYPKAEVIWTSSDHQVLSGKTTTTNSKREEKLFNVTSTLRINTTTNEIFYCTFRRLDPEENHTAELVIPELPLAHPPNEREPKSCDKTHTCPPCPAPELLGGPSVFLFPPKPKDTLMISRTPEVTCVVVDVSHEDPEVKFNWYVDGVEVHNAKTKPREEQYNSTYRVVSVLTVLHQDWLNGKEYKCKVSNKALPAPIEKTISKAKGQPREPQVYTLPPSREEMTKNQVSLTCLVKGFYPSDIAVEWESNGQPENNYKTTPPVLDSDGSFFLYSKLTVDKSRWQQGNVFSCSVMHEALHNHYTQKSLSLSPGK
Protocol: (§2) A ProteOn XPR36 (BioRad) instrument was used. The GLC sensor chip (BioRad) was mounted on the instrument and washed with PBST buffer, and the carboxymethyldextran surface was activated with an EDC/sulfo-NHS mixed solution. PD-L1-hFc dissolved at a concentration of 5 ug/ml in a 10 mM sodium acetate buffer solution (pH 5.0) was injected and immobilized on the GLC sensor chip.
(§3) In order to deactivate the activated carboxyl groups that remain unreacted with the PD-L1 protein, 1 M ethanolamine was flowed and 10 mM glycine (pH 2.0) was injected in order to wash proteins that remain unbound to the sensor chip.
The equilibrium dissociation constant (KD) was calculated by plotting and fitting the sensogram data in the equilibrium state depending on concentration.

[10] = biological target: T3, PD-L1 on CHO cell line highly expressing PD-L1 (PD-1/PD-L1 blockade bioassay kit, promega J1250) (UniProt Q9NZQ7 19-290, limits assumed); assay: cell-based or functional assay
T3 sequence (Q9NZQ7 19-290 limits assumed): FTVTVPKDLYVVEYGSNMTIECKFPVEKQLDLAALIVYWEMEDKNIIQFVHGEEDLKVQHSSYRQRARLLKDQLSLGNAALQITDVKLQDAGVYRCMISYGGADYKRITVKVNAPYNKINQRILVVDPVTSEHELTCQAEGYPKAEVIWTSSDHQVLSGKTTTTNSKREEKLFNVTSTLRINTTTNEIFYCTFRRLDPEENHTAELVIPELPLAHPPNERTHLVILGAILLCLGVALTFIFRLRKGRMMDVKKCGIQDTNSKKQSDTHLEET

[11] = biological target: M8; assay: ELISA on coated antigen, column M8
Protocol: as §1

[12] = biological target: T2, PD-L1-hFc; assay: kinetics on PD-L1-hFc (legend paragraph 40; text names ProteOn XPR36, the sheet's sensorgrams have a nm axis)
[13] = biological target: T4, WT (human, UniProt Q9NZQ7); assay: ELISA on coated antigen, column WT
T4 construct: recombinant; also called hPD-L1; antigen PD-L1 wild type (WT)
T4 sequence (Q9NZQ7 19-238 limits assumed): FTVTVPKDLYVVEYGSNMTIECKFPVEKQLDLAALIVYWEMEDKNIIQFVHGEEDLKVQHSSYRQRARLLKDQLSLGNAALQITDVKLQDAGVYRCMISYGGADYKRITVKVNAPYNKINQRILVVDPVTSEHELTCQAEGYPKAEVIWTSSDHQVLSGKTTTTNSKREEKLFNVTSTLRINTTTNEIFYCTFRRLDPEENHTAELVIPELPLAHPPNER
Protocol: as §1

[14] = biological target: T5, ITGA6; assay: ELISA on coated antigen, column ITGA6
T5 construct: unrelated antigen column; all antibodies give 0.5 to 0.6
T5 sequence (P23229 whole entry, species assumed, looked up): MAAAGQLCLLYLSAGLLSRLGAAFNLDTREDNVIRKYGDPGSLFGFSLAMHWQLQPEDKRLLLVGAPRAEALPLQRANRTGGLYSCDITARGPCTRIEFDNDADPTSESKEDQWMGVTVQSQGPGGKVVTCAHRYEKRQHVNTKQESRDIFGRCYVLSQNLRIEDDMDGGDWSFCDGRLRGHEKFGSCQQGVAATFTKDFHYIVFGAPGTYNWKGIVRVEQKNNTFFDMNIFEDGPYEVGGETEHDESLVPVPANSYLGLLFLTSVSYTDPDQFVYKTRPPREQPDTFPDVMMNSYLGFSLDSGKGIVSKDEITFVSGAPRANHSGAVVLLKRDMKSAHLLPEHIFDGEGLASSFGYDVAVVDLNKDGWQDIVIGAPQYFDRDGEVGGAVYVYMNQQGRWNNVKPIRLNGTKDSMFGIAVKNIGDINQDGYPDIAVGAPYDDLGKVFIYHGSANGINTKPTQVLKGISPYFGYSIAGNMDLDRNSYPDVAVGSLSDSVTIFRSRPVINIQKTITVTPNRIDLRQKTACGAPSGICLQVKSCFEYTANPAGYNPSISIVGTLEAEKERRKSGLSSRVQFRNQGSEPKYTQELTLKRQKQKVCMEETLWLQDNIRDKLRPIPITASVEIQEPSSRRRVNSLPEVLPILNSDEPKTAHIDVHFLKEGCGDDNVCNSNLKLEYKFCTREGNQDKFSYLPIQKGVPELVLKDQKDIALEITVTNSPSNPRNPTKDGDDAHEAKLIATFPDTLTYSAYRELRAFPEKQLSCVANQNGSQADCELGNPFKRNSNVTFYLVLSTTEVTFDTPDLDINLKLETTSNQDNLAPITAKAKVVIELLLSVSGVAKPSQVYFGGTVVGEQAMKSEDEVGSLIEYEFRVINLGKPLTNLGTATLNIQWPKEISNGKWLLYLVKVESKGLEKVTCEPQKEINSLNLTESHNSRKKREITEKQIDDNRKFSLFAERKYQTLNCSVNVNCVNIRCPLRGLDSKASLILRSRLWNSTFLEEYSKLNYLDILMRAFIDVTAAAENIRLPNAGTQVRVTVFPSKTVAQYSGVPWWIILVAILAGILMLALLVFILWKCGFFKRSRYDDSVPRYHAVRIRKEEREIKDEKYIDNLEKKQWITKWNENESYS

[15] = biological target: T6, PD-L1-His (human, UniProt Q9NZQ7); assay: competition ELISA: PD-L1-His pre-incubated with the antibody, then on coated PD-1-Fc (blocked ligand); % of max absorbance
T6 construct: recombinant, His-tagged; also called human PD-L1-His (S1479, Y-Biologics)
T6 sequence (Q9NZQ7 19-238 limits assumed): as the sequence (Q9NZQ7 19-238 limits assumed) above

[16] = biological target: T3, PD-L1 on CHO cell line highly …; assay: cell-based or functional assay; remark: listed apart in the source
[17] = biological target: T7, PD-L2-Fc (human, UniProt Q9BQ51); assay: ELISA on coated PD-L2-Fc (2.5 and 5 ug/well), OD450nm
T7 construct: recombinant Fc fusion; also called human PD-L2-Fc (#10292-H02H, Sino)
T7 sequence (ligand-Fc, looked up): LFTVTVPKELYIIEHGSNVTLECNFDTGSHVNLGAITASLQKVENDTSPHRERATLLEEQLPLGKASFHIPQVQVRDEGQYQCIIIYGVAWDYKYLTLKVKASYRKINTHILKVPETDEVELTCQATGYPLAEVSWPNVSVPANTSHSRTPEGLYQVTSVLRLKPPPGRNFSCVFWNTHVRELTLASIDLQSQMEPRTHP

[18] = biological target: mouse PD-L1 protein (mouse, UniProt Q9EP73 19-238, limits assumed); assay: SPR (ProteOn XPR36); format of the mouse protein not stated
mouse PD-L1 protein, sequence (Q9EP73 19-238 limits assumed): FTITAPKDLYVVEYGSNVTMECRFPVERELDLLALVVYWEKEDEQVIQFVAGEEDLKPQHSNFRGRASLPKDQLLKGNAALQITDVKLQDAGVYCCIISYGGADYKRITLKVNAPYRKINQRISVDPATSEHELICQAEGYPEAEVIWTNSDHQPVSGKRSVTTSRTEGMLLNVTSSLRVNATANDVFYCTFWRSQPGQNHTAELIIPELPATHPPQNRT

[19] = biological target: T2, PD-L1-hFc; assay: SPR (ProteOn XPR36), PD-L1-hFc immobilised on GLC chip, antibody as analyte; human PD-L1
Protocol: as §2, §3

[20] = biological target: T8, cynomolgus PD-L1 protein (cynomolgus, UniProt G7PSE7 19-239); assay: SPR (ProteOn XPR36); format of the cynomolgus protein not stated; cynomolgus PD-L1
T8 construct: also called monkey PD-L1
T8 sequence (G7PSE7 entry or part of it): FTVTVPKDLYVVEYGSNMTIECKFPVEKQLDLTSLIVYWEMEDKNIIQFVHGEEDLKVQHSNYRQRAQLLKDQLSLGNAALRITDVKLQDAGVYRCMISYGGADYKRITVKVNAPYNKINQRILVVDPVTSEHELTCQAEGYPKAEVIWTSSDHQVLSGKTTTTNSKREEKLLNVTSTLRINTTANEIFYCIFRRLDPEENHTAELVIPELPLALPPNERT

[21] = biological target: T1, human PD-L1 over-expressed on HEK293E …; assay: flow cytometry on HEK293E/PD-L1 cells, FITC anti-human IgG, serial dilutions; fit table
Protocol: 0.5 to 1×10⁶ cells per sample were prepared from the transformation cell pools highly expressing human PD-L1, and antibodies were serially diluted at a constant dilution rate and reacted with the prepared cells at 4° C. for 20 minutes. Then, the cells were washed three times with PBS (#LB001-02, Welgene) containing 2% fetal bovine serum and reacted at 4° C. for 20 minutes with an anti-human IgG antibody (#FI-3000, Vectorlabs) conjugated with a FITC (fluorescein isothiocyanate) fluorescent substance. Then, the cells were subjected to the same washing process as above and then suspended in 0.5 ml of PBS containing 2% FBS (#26140-079, Thermo Fisher) with an FACSCanto II flow cytometer (BD Biosciences, USA) as a flow cytometer (Table 11).

[22] = biological target: T3, PD-L1 on CHO cell line highly …; assay: cell-based or functional assay; remark: listed apart in the source

T1 sequence (Q9NZQ7 19-290): as the sequence (Q9NZQ7 19-290 limits assumed) above

EC50 [1]: 1.72 nM | absorbance at 490 nm [2]: 2.5 | absorbance at 490 nm [3]: 0.9 | absorbance at 490 nm [4]: 2.4 | absorbance at 490 nm [5]: 0.4 | absorbance at 490 nm [6]: 2.3 | absorbance at 490 nm [7]: 2.4 | absorbance at 490 nm [8]: 2.5 | Kd [9]: 0.045 nM | EC50 [10]: 0.909 nM | absorbance at 490 nm [11]: 2.6 | Kd [12]: 0.043 nM | koff [12]: 1.43e-05 s⁻¹ | kon [12]: 334000 M⁻¹ s⁻¹ | absorbance at 490 nm [13]: 2.5 | absorbance at 490 nm [14]: 0.5
B1: PDL1-16E12 (antibody, V domains shown)
VH: QMQLVQSGAEVKKPGSSVKVSCKASGGTFSSYAISWVRQAPGQGLEWMGRIIPILGIANYAQKFQGRVTITADKSTSTAYMELSSLRSEDTAVYYCAKPRDGYNLVAFDIWGQGTMVTVSS
VL: QLVLTQPPSVSGAPGQTVTISCTGSSSNIGAGYDVHWYQQLPGTAPKLLIYGNNNRPSGVPDRFSGSKSGALASLAITGLQAEDGADYHCQSYDNSLSAHAVFGTGTKVTVL
notes: Only FR/CDR pieces are tied to the clone; also called parent antibody

IC50 [15]: 7.66 nM | Average *EC50 [nM], PD-1/PD-L1 blockade bioassay [16]: 0.25 nM | binding result [17]: no binding (tested: 1.0 ug/ml)
B2: PD-L1-16E12-LS-4F5 (Kappa) (antibody, V domains shown)
VH: B1 VH
VL: QLVLTQPPSVSGAPGQRVTISCTGSSSNIGAGYDVHWYQQLPGAAPKLLIYGDINRPSGVPDRFSGSKSGISASLAITGLQAEDEADYYCQSYDSSLSGGVFGGGTKLTVL

Kd [18]: 0.808 nM | koff [18]: 0.000673 s⁻¹ | kon [18]: 833000 M⁻¹ s⁻¹ | Kd [19]: < 0.032 nM | koff [19]: < 1e-05 s⁻¹ | kon [19]: 310000 M⁻¹ s⁻¹ | Kd [20]: < 0.035 nM | koff [20]: < 1e-05 s⁻¹ | kon [20]: 287000 M⁻¹ s⁻¹ | Bmax [21]: 4100 | Kd [21]: 1.46 nM | EC50 (first run) [22]: 0.3 nM | EC50 (second run) [22]: 0.21 nM | Kd [12]: 0.00853 nM | koff [12]: 2.18e-06 s⁻¹ | kon [12]: 256000 M⁻¹ s⁻¹
B3: PDL1-16E12 (LS/4F5) (antibody, V domains shown)
VH: B1 VH
VL: B2 VL
notes: also called 16E12(4F5); 16E12-4F5
